This is an account of results in patent US20140105889A1 (published 2014).

Usually Kd stands for the constant that tells how readily two partners part at equilibrium. A low value points to tighter binding.

First the molecules themselves.
T1: FcγRIIa type H (human, UniProt P12318 36-217)
T1 construct: also called FcγRIIaH; FcγRIIa(H)
T1 sequence: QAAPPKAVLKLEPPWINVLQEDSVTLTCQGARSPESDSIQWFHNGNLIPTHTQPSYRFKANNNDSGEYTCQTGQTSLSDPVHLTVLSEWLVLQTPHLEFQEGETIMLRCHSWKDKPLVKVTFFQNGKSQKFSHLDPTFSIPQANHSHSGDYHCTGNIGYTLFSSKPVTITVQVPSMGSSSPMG

T2: FcγRIIb (human, UniProt P31994 43-217, limits assumed)
T2 construct: also called FcγIIB; FcgRIIb
T2 sequence: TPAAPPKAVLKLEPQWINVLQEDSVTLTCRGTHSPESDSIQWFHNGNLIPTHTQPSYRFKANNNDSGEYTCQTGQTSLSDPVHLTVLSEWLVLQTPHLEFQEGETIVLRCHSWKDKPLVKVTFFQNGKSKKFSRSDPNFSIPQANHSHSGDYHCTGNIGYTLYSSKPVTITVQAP

B1: IL6R-BP206/IL6R-L (antibody, human IgG1)
heavy: QVQLQESGPGLVKPSETLSLTCAVSGHSISHDHAWSWVRQPPGEGLEWIGFISYSGITNYNPSLQGRVTISRDNSKNTLYLQMNSLRAEDTAVYYCARSLARTTAMDYWGEGTLVTVSSASTKGPSVFPLAPSSKSTSGGTAALGCLVKDYFPEPVTVSWNSGALTSGVHTFPAVLQSSGLYSLSSVVTVPSSSLGTQTYICNVNHKPSNTKVDKKVEPKSCDKTHTCPPCPAPDLLGGDSVFLFPPKPKDTLMISRTPEVTCVVVDVSHEDGEVKFNWYVDGVEVHNAKTKPREEQYNSTYRVVSVLTVLHQDWLNGKEYKCKVSNKALPRPIEKTISKAKGQPREPQVYTLPPSRDELTKNQVSLTCLVKGFYPSDIAVEWESNGQPENNYKTTPPVLDSDGSFFLYSKLTVDKSRWQQGNVFSCSVMHEALHNHYTQESLSLSP
light: DIQMTQSPSSLSASVGDRVTITCRASQDISSYLNWYQQKPGKAPKLLIYYTSRLHSGVPSRFSGSGSGTDFTFTISSLQPEDIATYYCQQGNTLPYTFGQGTKVEIK
notes: Anti-human IL-6 receptor IgG1 Fc variant
B2: IL6R-BP211/IL6R-L (antibody, human IgG1)
heavy: B1 heavy with H270D, K328A
light: B1 light
notes: as for B1
B3: IL6R-BP203/IL6R-L (antibody, human IgG1)
heavy: B1 heavy with D235E, G239D
light: B1 light
notes: as for B1
B4: F1060 (antibody, human IgG1, kappa, name in EU numbering)
heavy: B1 heavy with D235E, D240P, M254Y, G273P, R332A, Q388S, N436Y, Y438V, E441K
light: not shown
notes: copies: 2 + 2
B5: F1071 (antibody, human IgG1, kappa, name in EU numbering)
heavy: B1 heavy with D235E, D240P, M254Y, G273P, R332A, N436Y, Y438V, Q440S, E441K
light: not shown
notes: copies: 2 + 2
B6: F1072 (antibody, name in EU numbering)
heavy: B1 heavy with D235E, D240P, M254Y, G273P, R332A, N436Y, Y438V, E441K, S442E
light: not shown
notes: copies: 2 + 2
B7: IL6R-BP148/IL6R-L (antibody, human IgG1)
heavy: B1 heavy with L236Y, G239D, G273P, K328A, R332K
light: B1 light
notes: EU numbering
B8: IL6R-BP178/IL6R-L (antibody, human IgG1)
heavy: B1 heavy with G239D, R332K
light: B1 light
notes: EU numbering
B9: IL6R-BP176/IL6R-L (antibody, human IgG1)
heavy: B1 heavy with G273P, K328D, R332K
light: B1 light
notes: EU numbering
B10: IL6R-BP181/IL6R-L (antibody, human IgG1)
heavy: B1 heavy with K328A, R332K
light: B1 light
notes: EU numbering
B11: IL6R-BP177/IL6R-L (antibody, human IgG1)
heavy: B1 heavy with L236Y, G239D, K328D, R332K
light: B1 light
notes: EU numbering

Positions count from the first letter of the chain named.

T3 sequence (P08637 other isoform, or with tags, fused parts or gaps limits assumed): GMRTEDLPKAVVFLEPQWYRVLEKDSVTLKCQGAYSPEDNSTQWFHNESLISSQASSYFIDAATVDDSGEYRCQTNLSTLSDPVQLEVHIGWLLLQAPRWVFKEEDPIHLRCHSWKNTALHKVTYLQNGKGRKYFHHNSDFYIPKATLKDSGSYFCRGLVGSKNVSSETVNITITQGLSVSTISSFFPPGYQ
T4 sequence (chain, as listed by the source limits assumed, chain 1 of 2): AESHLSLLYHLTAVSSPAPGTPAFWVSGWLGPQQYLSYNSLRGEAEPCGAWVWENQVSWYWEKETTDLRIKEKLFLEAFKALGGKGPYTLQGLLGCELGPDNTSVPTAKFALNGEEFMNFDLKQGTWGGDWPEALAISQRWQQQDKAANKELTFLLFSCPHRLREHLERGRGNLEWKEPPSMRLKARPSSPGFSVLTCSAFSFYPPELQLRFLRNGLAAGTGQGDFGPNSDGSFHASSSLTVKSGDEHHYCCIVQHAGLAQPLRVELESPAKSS
T4 sequence (P61769 21-119 limits assumed, chain 2 of 2): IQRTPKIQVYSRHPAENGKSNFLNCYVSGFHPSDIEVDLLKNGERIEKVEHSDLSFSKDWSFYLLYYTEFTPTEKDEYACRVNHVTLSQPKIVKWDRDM

One assay concerns the target T3, FcγRIIIa type V (human, UniProt P08637 17-208, limits assumed).
T3 construct: Soluble analyte in Biacore; also called FcγRIIIaV; FcγRIIIa(V)
As to the kind of experiment: SPR (Biacore), antibody captured on chip, FcγR as analyte, method of Example 14. On the technique in general: SPR reads the build-up and loss of mass on a sensor chip optically.
With B1, the affinity, expressed as Kd, was 69000 nM. Still for that read-out and setting: in the case of B2 it was 75000 nM. Consider B3, for which the Kd came out at 72000 nM.

A further assay addresses T4, human FcRn (human).
T4 construct: also called hFcRn; soluble human FcRn complexed with β2-microglobulin
Briefly: SPR (Biacore), pH 7.0, 25 C, antibody captured by Protein L, human FcRn as analyte.
Method: A kinetic analysis of binding between human FcRn and the aforementioned antibodies was carried out using the Biacore T100 or T200 (GE Healthcare). The antibodies being tested were captured on the CM4 Sensor Chip (GE Healthcare) on which a suitable amount of Protein L (ACTIGEN) was suitably immobilized by amine coupling. Next, diluted human FcRn and a running buffer used as a blank were injected to allow the human FcRn to interact with the antibody captured on the sensor chip. A buffer consisting of 50 mmol/L sodium phosphate, 150 mmol/L NaCl and 0.05% (w/v) Tween 20 (pH 7.0 or pH 7.4) was used for the running buffer, and each buffer was also used to dilute the human FcRn. 10 mmol/L glycine-HCl (pH 1.5) was used to regenerate the sensor chip. All measurements of binding were carried out at 25° C. The KD(M) of each antibody to human FcRn was calculated based on kinetics parameters, i.e., the association rate constant ka (1/Ms) and the dissociation rate constant kd (1/s) calculated from a sensorgram obtained by the measurement. The Biacore T100 or T200 Evaluation Software (GE Healthcare) was used to calculate each parameter.
Regarding B4, the affinity, expressed as Kd, was 143 nM.

Turning to B5, binding was characterised by a dissociation constant (Kd) of 124 nM. B6 yielded a Kd of 135 nM.

The next assay addresses T1, FcγRIIa type H. Briefly: SPR (Biacore), captured antibody, FcγR as analyte, method of Example 14.
For B7, the affinity, expressed as Kd, was 9000 nM. Still for that read-out and setting: under B8 stands 1400 nM; under B9, 3000 nM. Same read-out and setting: in the case of B10 it was 2600 nM; in that of B11, 6200 nM.

The next assay concerns the target T2, FcγRIIb. As to the kind of experiment: ratio of SPR KD values of this variant (FcγRIIaR over FcγRIIb).
From the text: (§1) Furthermore, KD(IIaR)/KD(IIb) and KD(IIaH)/KD(IIb) in the table respectively represent the value obtained by dividing the KD value of each variant for FcγRIIaR by the KD value of each variant for FcγRIIb, and the value obtained by dividing the KD value of each variant for FcγRIIaH by the KD value of each variant for FcγRIIb.
Turning to B7, the “KD (IIaR)/KD (IIb)” value was 14.5. On the same count and under the same terms, in the case of B8 it was 18.1; in that of B9, 19.1; in that of B10, 20.3.

Consider B11, for which the “KD (IIaR)/KD (IIb)” value was found to be 13.6.

The target in another assay is T2, FcγRIIb. As to the kind of experiment: ratio of SPR KD values of this variant (FcγRIIaH over FcγRIIb).
From the text: as §1
For B7, the “KD (IIaH)/KD (IIb)” value worked out at 93.8.

Turning to B8, the “KD (IIaH)/KD (IIb)” value was determined as 272. On to B9, for which the “KD (IIaH)/KD (IIb)” value stood at 83.1. On the same count and under the same terms, under B10 stands 182. The same measure, in the same setting: in the case of B11 it was 159.
